From publication PMC3924271
Where “and” joins values, the source holds several entries; their conditions need not be identical. Equal entries are not always repeated.

Experiments:
[1] = biological target: Rabbit skeletal muscle actin, monomeric (G-actin) (rabbit) (UniProt P68135); assay: SPR
[2] = biological target: Rabbit skeletal muscle actin, filamentous (F-actin) (rabbit) (UniProt P68135)
[3] = biological target: Rabbit skeletal muscle actin, monomeric (G-actin) (rabbit) (UniProt P68135); assay: cross-linking

| Substance | Kd [1] [µM] | kon [1] [M⁻¹ s⁻¹] | filament pitch by negative-stain TEM, similar concentration of PfADF1 [2] [nm] | percent of actin and PfADF1 linked by EDC [3] |
| --- | --- | --- | --- | --- |
| PfADF1.K72A (natural protein) | 33 | 64.2 | – | – |
| Plasmodium falciparum actin depolymerizing factor 1 (PfADF1), wild type (natural protein) | 3.5 | 95.9 | 39.4 | 10% and 25% |
